These results are taken from paper doi:10.64898/2025.12.03.692134 (bioRxiv, 2025).

To fix the notation:
B1: Torpedo nicotinic acetylcholine receptor β subunit (receptor)
chain: SVMEDTLLSVLFETYNPKVRPAQTVGDKVTVRVGLTLTNLLILNEKIEEMTTNVFLNLAWTDYRLQWDPAAYEGIKDLRIPSSDVWQPDIVLMNNNDGSFEITLHVNVLVQHTGAVSWQPSAIYRSSCTIKVMYFPFDWQNCTMVFKSYTYDTSEVTLQHALDAKGEREVKEIVINKDAFTENGQWSIEHKPSRKNWRSDDPSYEDVTFYLIIQRKPLFYIVYTIIPCILISILAILVFYLPPDAGEKMSLSISALLAVTVFLLLLADKVPETSLSVPIIIRYLMFIMILVAFSVILSVVVLNLHHRSPNTHTMPNWIRQIFIETLPPFLWIQRPVTTPSPDSKPTIISRANDEYFIRKPAGDFVCPVDNARVAVQPERLFSEMKWHLNGLTQPVTLPQDLKEAVEAIKYIAEQLESASEFDDLKKDWQYVAMVADRLFLYVFFVICSIGTFSIFLDASHNVPPDNPFA
B2: Torpedo nicotinic acetylcholine receptor α subunit (receptor)
chain: SEHETRLVANLLENYNKVIRPVEHHTHFVDITVGLQLIQLISVDEVNQIVETNVRLRQQWIDVRLRWNPADYGGIKKIRLPSDDVWLPDLVLYNNADGDFAIVHMTKLLLDYTGKIMWTPPAIFKSYCEIIVTHFPFDQQNCTMKLGIWTYDGTKVSISPESDRPDLSTFMESGEWVMKDYRGWKHWVYYTCCPDTPYLDITYHFIMQRIPLYFVVNVIIPCLLFSFLTGLVFYLPTDSGEKMTLSISVLLSLTVFLLVIVELIPSTSSAVPLIGKYMLFTMIFVISSIIITVVVINTHHRSPSTHTMPQWVRKIFIDTIPNVMFFSTMKRASKEKQENKIFADDIDISDISGKQVTGEVIFQTPLIKNPDVKSAIEGVKYIAEHMKSDEESSNAAEEWKYVAMVIDHILLCVFMLICIIGTVSVFAGRLIELSQEG

Experiment [1] deals with T1, Torpedo nicotinic acetylcholine receptor δ subunit (Tetronarce californica (Pacific …, UniProt P02718 22-522)).
T1 sequence: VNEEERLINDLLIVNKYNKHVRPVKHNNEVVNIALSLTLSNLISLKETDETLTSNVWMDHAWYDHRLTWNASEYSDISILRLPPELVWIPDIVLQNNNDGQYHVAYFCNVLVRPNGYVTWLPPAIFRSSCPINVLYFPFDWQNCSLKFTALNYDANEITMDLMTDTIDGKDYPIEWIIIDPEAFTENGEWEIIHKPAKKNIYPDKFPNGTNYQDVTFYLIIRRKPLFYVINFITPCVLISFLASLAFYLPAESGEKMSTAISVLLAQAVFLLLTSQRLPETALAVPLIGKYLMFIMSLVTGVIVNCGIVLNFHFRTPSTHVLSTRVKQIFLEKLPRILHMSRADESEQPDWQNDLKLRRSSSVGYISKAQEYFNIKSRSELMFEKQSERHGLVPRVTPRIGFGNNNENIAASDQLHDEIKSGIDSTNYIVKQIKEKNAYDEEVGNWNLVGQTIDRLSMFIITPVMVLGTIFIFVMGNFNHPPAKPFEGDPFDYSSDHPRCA
Kind of experiment: cryo-EM structure.

Experiment [2] addresses B1. Kind of experiment: cryo-EM structure.

Take B1: the binding result in experiment [1] is recorded as “binds”.
B2: the binding result in experiment [2] is “binds”.
